B1: CD166-16522-2001 (antibody)
chain 1: QITLKESGPTLVKPTQTLTLTCTFSGFSLSTYGMGVGWIRQPPGKALEWLANIWWSEDKHYSPSLKSRLTITKDTSKNQVVLTMTNMDPVDTATYYCVQIDYGNDYAFTYWGQGTLVTVSS
chain 2: QGQSGQGLEGWCLHPLCLWGAGGGGSSGGSISSGLLSGRSDNHGGGSDIVMTQSPLSLPVTPGEPASISCRSSKSLLHSNGITYLYWYLQKPGQSPQLLIYQMSNLASGVPDRFSGSGSGTDFTLKISRVEAEDVGVYYCAQNLELPYTFGQGTKLEIK
B2: CD166-7614.12-2001 (antibody)
chain 1: B1 chain 1
chain 2: QGQSGQGHPLVLGGGSSGGSISSGLLSGRSDNHGGGSDIVMTQSPLSLPVTPGEPASISCRSSKSLLHSNGITYLYWYLQKPGQSPQLLIYQMSNLASGVPDRFSGSGSGTDFTLKISRVEAEDVGVYYCAQNLELPYTFGQGTKLEIK
B3: CD166-16522.14-2001 (antibody)
chain 1: B1 chain 1
chain 2: B1 chain 2 with W11A
B4: CD166-7614.13-2001 (antibody)
chain 1: B1 chain 1
chain 2: QGQSGQGHPLGGGSSGGSISSGLLSGRSDNHGGGSDIVMTQSPLSLPVTPGEPASISCRSSKSLLHSNGITYLYWYLQKPGQSPQLLIYQMSNLASGVPDRFSGSGSGTDFTLKISRVEAEDVGVYYCAQNLELPYTFGQGTKLEIK
B5: CD166-7614.5-2001 (antibody)
chain 1: B1 chain 1
chain 2: QGQSGQGLCHALVLSAWESCSSGGGSSGGSISSGLLSGRSDNHGGGSDIVMTQSPLSLPVTPGEPASISCRSSKSLLHSNGITYLYWYLQKPGQSPQLLIYQMSNLASGVPDRFSGSGSGTDFTLKISRVEAEDVGVYYCAQNLELPYTFGQGTKLEIK
B6: CD166-7614.9-2001 (antibody)
chain 1: B1 chain 1
chain 2: B5 chain 2 with A11P, W17A
B7: CD166-16522.17-2001 (antibody)
chain 1: B1 chain 1
chain 2: B1 chain 2 with P15A
B8: CD166-16522.15-2001 (antibody)
chain 1: B1 chain 1
chain 2: B1 chain 2 with L13A
B9: CD166-7614.10-2001 (antibody)
chain 1: B1 chain 1
chain 2: B5 chain 2 with A11P, E18A
B10: CD166-7614.7-2001 (antibody)
chain 1: B1 chain 1
chain 2: B5 chain 2 with A11P, V13A
B11: CD166-7614.11-2001 (antibody)
chain 1: B1 chain 1
chain 2: QGQSGQGCHPLVLSAWESCGGGSSGGSISSGLLSGRSDNHGGGSDIVMTQSPLSLPVTPGEPASISCRSSKSLLHSNGITYLYWYLQKPGQSPQLLIYQMSNLASGVPDRFSGSGSGTDFTLKISRVEAEDVGVYYCAQNLELPYTFGQGTKLEIK
B12: CD166-16522.16-2001 (antibody)
chain 1: B1 chain 1
chain 2: B1 chain 2 with H14A
B13: CD166-M9 antibody (mouse anti-CD166 Mab M9) (antibody, V domains shown)
VH: QVTLKESGPGILQPSQTLSLTCSFSGFSLSTYGMGVGWIRQPSGKGLEWLANIWWSEDKHYNSALKSRLTISKDTSNNQVFLKISSVDTADTATYYCVQIDYGNDYAFTYWGQGTLVTVSA
VL: DIVMTQAAFSNPVTLGTSASISCRSSKSLLHSNGITYLYWYLQKPGQSPQLLIYQMSNLASGVPDRFSSSGSGTDFTLRISRVEAEDVGVYYCAQNLELPYTFGGGTKLEIKR
notes: Obtained by mouse hybridoma technology; also called M9 mAb; muM9
B14: CD166-M9_vk3a/HcB (antibody, V domains shown)
VH: B1 chain 1
VL: DIVMTQSPLSLPVTPGEPASISCRSSQSLLHSNGITYLYWYLQKPGQSPQLLIYQMSNRASGVPDRFSGSGSGTDFTLKISRVEAEDVGVYYCAQNLELPYTFGQGTKLEIK
notes: Humanized M9
B15: CD166-M9_vK3b/HcB (antibody, V domains shown)
VH: B1 chain 1
VL: B14 VL with G69S
notes: Humanized M9
B16: CD166-M9_vK3b/HcC (antibody, V domains shown)
VH: B1 chain 1 with M84I, M87V
VL: B14 VL with G69S
notes: Humanized M9
B17: CD166-M9_vK2/HcC (antibody, V domains shown)
VH: B1 chain 1 with M84I, M87V
VL: B14 VL with Q27K, R59L, G69S
notes: Humanized M9
B18: CD166-M9_vK3a/HcC (antibody, V domains shown)
VH: B1 chain 1 with M84I, M87V
VL: B14 VL
notes: Humanized M9

Numbering of substitutions follows the chain as printed.

Experimental findings from patent publication US20160355587A1 (CYTOMX THERAPEUTICS, published 2016) are described below.

One experiment has as its target T1, human CD166 protein (human, UniProt Q13740 28-526, limits assumed).
T1 construct: Isolated human CD166 protein coated on ELISA plates; also called ALCAM
T1 sequence (looked up): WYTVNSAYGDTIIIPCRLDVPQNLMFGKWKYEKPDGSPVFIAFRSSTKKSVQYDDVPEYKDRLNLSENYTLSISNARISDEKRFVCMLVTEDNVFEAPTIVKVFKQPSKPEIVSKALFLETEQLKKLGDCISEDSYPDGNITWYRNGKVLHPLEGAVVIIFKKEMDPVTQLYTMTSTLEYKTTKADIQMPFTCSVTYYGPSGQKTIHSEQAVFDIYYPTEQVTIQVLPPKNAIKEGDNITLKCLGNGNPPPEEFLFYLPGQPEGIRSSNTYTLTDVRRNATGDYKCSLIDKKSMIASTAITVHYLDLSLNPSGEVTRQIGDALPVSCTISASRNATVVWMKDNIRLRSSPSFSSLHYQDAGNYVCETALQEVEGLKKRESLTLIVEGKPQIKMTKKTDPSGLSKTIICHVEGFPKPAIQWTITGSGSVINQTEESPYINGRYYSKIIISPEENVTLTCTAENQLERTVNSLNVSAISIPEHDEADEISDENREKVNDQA
Description: ELISA; relative to parental CD166 M9 vk1/HcB. A general note: ELISA stands for enzyme-linked immunosorbent assay.
As to B1, the “Fold Increase in Kd” value worked out at 95 fold.
Same read-out and setting: to B2 belongs 75 fold; to B3, 95 fold; to B4, 18 fold.
For B5, the “Fold Increase in Kd” value turned out to be 112 fold.
In the case of B6, the “Fold Increase in Kd” value was determined as 120 fold.
The same measure, in the same setting: under B7 stands 14 fold.
Consider B8, for which the “Fold Increase in Kd” value came to 101 fold.
On the same count and under the same terms, under B9 stands 154 fold; under B10, 139 fold.
Turning to B11, the “Fold Increase in Kd” value was 123 fold.
With B12, the “Fold Increase in Kd” value worked out at 11 fold.

The next experiment deals with T1, human CD166 protein. The experiment is described as follows: ELISA, human CD166 protein coated; positive control. Here is the method:
The antibody CD166-M9 antibody comprising VH of SEQ ID NO: 119, VL of SEQ ID NO: 120 was used a positive control, and an isotype control antibody was used a negative control.
Using a standard ELISA protocol, human CD166 protein was absorbed to ELISA plates and subsequently incubated with the indicated concentration of antibody. Bound antibody was detected with an anti-human FAB-peroxidase secondary.
Regarding B13, the binding result is listed as “binds”.

A further experiment has as its target T1, human CD166 protein. Description: ELISA, human CD166 protein coated; apparent Kd.
Regarding B1, the Kd is 424 nM.
Same read-out and setting: under B2 stands 332 nM; under B3, 422 nM; under B4, 77.7 nM.
Same read-out and setting: under B5 stands 495 nM; under B6, 534 nM; under B7, 61.6 nM.
As to B8, the Kd came to 448 nM.
On the same count and under the same terms, under B9 stands 685 nM.
Regarding B10, the Kd was determined as 619 nM.
Same read-out and setting: to B11 belongs 544 nM; to B12, 47.4 nM.

For the next experiment, the target named is T1, human CD166 protein. The experiment is described as follows: ELISA, human CD166 protein coated, anti-human FAB-peroxidase.
For B14, the binding result is recorded as “binds”.
As for B15, the binding result is “binds”.
B16: the binding result is reported as “binds”.
Same read-out and setting: to B17 belongs “binds”; to B18, “binds”.
